Measured values reported in PMC5420313.

Target: GST-Dyn2(DQR)_(motor) (D1406A/Q1407A/R1410A mutant of GST-Dyn2_(motor)) (human) (UniProt Q8NCM8)

- maximum velocity of microtubule gliding by the unstacked GST-Dyn2(DQR) (motor): 562 nm/s
Substance: GST-Dyn2(DQR)_(motor) (D1406A/Q1407A/R1410A mutant of GST-Dyn2_(motor)), Q8NCM8 1091-4307
